Results published in patent US20210002356A1 (ZHUHAI TRINOMAB BIOTECHNOLOGY, published 2021).

Biological target: tetanus toxin (Clostridium tetani, UniProt P04958 2-1315)
Sequence (P04958 2-457 limits assumed, chain 1 of 2): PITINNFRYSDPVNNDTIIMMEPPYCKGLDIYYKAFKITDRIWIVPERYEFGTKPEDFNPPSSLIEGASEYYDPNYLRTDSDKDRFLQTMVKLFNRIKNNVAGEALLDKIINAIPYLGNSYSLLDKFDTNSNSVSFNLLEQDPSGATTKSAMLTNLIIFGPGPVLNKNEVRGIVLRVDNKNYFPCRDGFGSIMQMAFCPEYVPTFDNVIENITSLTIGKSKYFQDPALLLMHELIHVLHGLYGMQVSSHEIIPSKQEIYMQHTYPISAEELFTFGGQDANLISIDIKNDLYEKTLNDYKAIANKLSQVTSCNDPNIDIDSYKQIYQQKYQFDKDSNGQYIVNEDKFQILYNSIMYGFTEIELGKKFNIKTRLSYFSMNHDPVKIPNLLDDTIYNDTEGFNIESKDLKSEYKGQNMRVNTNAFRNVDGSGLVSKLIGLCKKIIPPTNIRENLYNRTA
Sequence (P04958 458-1315 limits assumed, chain 2 of 2): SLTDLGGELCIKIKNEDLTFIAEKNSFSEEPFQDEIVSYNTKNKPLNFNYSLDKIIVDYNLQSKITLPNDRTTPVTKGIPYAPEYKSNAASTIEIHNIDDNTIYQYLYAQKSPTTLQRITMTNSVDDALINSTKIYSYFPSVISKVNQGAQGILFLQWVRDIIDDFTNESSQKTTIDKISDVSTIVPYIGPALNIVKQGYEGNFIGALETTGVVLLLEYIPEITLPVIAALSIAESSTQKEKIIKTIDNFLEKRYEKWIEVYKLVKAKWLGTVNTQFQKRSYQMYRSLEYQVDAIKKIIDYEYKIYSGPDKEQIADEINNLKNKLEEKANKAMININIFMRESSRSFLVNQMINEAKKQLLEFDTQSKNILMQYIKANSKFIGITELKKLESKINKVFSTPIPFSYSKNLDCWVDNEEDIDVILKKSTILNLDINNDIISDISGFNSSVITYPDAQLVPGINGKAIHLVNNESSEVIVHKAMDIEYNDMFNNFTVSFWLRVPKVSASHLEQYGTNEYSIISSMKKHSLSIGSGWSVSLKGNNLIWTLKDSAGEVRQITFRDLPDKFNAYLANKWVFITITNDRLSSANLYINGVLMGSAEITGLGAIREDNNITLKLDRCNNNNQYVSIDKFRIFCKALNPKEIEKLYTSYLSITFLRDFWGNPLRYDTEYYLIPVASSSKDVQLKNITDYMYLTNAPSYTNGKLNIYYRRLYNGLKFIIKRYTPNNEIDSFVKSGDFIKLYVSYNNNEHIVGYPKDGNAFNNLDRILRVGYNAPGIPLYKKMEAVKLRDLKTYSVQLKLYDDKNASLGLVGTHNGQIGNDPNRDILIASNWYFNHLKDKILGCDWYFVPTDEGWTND

| Binder | Kd [nM] | koff [s⁻¹] | kon [M⁻¹ s⁻¹] |
| --- | --- | --- | --- |
| TRN0012 antibody (antibody, V domains shown) VH: EVQLVQSGAEVKKPGESLRISCQGSGYTFTNYWIGWVRQMPGKGLEWMGIVYPGDSDTRYSPSFQGQITISADKSISTAYLQWNNLKASDTGMYYCATQQSNPYDSGSYWYFDSWGQGTLVTVSS VL: DIVMTQSPPSLSASIGDRVTITCRASQGIRNFLAWYQQKPGKVPKLLIYAASTLQSGVPSRFSGSGSGTDFTLTISSLQPEDVATYYCQKYFSAPPDFGQGTRLEIK | 4.07 | 0.000328 | 80600 |
| TRN0010 antibody (antibody, V domains shown) VH: QVQLQESGPGLVKPSETLSLRCTVSGGSISSYYWSWFRQPPGKGLEWIGYVHYSGSTNYNPSLKSRFTLSVDTSKSQFSLRLRSVTAADTAIYYCARDKYQTDVSDIWGQGTVVTVSS VL: DIQMTQSPGTLSLSPGERATLSCRASQSITSSFLAWYQQKPGQAPRLLIYGASSRATGIPDRFSGSGSGTDFILTISRLEPEDFAVYYCQQYDTSRTFGQGTTVEIK | 3.68 | 0.000153 | 41500 |
